Source: paper PMC8794075 (Emerging Microbes & Infections, 2022)

Molecular target: prefusion-stabilized SARS-CoV-2 S-trimer protein (wild type, Wuhan-Hu-1) (SARS-CoV-2, UniProt P0DTC2)
Assay: cell-based or functional assay

B1: MAb S3H3 (antibody, V domains shown)
VH: QVQLQQPGAELVRPGASVKLSCKASGYSFTRFWMNWVKQRPGQGLEWIGMIHPSDSETRLNQKFKDKATLTVDKSSTTAYMQLSSPTSEDSAVYYCARKDYDYDAWFAYWGQGTLVTVSA
VL: DIVLTQSPASLAVSLGQRATISCRASKSVSASVYSYMHWYQQKPGQPPKLLIYLASSLESGVPARFSGSGSGTDFTLNIHPVEEEDAATYYCHHSRELPPAFGGGTKLEIK
B1 was tested, and the “IC50 of neutralisation of WT S pseudovirus” value was 0.083 µg/mL.
